Assay results published in patent publication US20190054150A1 (AEQUUS BIOPHARMA, published 2019).
Square brackets hold non-standard residues; d marks the D form. Ends that are not written are not given here. Nle = CCCC[C@H](N)C(=O)O; βAla = NCCC(=O)O

Key:
Experiment in all cases: cell-based or functional assay
[1] = target: MCR1 (human, UniProt Q01726 1-317)
[2] = target: MCR3 (human, UniProt P41968 1-323)
[3] = target: MCR4 (human, UniProt P32245 1-332)
Sequence of MCR4 (P32245 whole entry): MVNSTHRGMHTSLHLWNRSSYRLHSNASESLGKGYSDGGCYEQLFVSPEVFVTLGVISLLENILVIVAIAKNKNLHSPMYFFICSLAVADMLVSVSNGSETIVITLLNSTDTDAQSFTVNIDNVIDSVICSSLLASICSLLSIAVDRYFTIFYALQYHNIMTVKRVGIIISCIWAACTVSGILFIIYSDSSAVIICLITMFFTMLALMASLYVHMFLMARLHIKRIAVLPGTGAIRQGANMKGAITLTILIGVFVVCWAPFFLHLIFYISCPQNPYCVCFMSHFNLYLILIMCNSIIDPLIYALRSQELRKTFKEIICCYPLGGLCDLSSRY

Sequence of MCR1 (Q01726 whole entry): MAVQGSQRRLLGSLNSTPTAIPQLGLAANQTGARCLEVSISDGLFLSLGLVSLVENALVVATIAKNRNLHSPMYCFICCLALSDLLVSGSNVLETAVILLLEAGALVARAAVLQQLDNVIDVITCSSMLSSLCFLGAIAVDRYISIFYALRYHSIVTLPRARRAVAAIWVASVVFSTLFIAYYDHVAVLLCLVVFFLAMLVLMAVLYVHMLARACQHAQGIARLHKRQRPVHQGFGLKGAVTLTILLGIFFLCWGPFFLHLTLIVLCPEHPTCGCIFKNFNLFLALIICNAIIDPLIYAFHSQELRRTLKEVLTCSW
Sequence of MCR3 (P41968 whole entry): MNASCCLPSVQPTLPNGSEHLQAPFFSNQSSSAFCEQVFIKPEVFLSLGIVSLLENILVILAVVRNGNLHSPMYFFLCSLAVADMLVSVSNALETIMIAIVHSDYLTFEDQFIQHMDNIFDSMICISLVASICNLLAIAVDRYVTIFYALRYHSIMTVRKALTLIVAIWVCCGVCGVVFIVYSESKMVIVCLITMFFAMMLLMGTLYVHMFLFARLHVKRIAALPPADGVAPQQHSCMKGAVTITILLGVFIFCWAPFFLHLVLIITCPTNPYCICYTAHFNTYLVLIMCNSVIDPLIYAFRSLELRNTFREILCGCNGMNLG

**Q.** What does the source list for YVMGHFRWDRFGSYSMEHFRWGKPVGKKRRPVKVYP [γ-MSH-ACTH1-24 without linker and cleavage site]?
**A.** MCR1 EC50 (nM); cAMP production, LANCE cAMP assay, CHO-MCR1 cells, cell pool A [1]: 12 nM; MCR3 EC50 (nM); cAMP production, LANCE cAMP assay, CHO-MCR3 cells, cell pool A [2]: 33 nM

B1: NDP-ACTH4-9-ACTH1-24 (peptide)
peptide: XEHXRWSYSMEHFRWGKPVGKKRRPVKVYP
modifications: Nle at position 1 and dPhe at position 4 as printed: Nle-EH-dPhe-RWSYSMEHFRWGKPVGKKRRPVKVYP
**Q.** What does the source list for B1?
**A.** MCR1 EC50 (nM); cAMP production, LANCE cAMP assay, CHO-MCR1 cells, cell pool B [1]: 0.17 nM; MCR3 EC50 (nM); cAMP production, LANCE cAMP assay, CHO-MCR3 cells, cell pool B [2]: 6.8 nM; MCR4 EC50 (nM); cAMP production, LANCE cAMP assay, CHO-MCR4 cells, cell pool B [3]: 0.8 nM

**Q.** Which “MCR1 EC50 (nM); cAMP production, LANCE cAMP assay, CHO-MCR1 cells, cell pool B” value (shortened to “MCR1 EC50 (nM); cAMP production … cell pool B”) [1] does the source give for [Nle]EH[dF]RW[βAla]G[βAla][Nle]EH[dF]RW [NDP-ACTH4-9-βAla-G-βAla-NDP-ACTH4-9] here?
**A.** Its value is 0.35 nM.

**Q.** And the “MCR3 EC50 (nM); cAMP production, LANCE cAMP assay, CHO-MCR3 cells, cell pool B” value (shortened to “MCR3 EC50 (nM); cAMP production … cell pool B”) [2]?
**A.** The value was 25 nM.

**Q.** What about the “MCR4 EC50 (nM); cAMP production, LANCE cAMP assay, CHO-MCR4 cells, cell pool B” value (shortened to “MCR4 EC50 (nM); cAMP production”) [3] of the same binder?
**A.** The value was 6.7 nM.

B2: NDP-α-MSH-linker-MMP site-linker-ACTH1-24 (peptide)
peptide: Ac-SYS[Nle]EH[dF]RWGKPVGGGGSPLGLWAGGGGSSYSMEHFRWGKPVGKKRRPVKVYP
**Q.** How did the “MCR1 EC50 (nM); cAMP production … cell pool B” value [1] turn out when B2 was run?
**A.** Its value is 2.4 nM.

**Q.** And the “MCR3 EC50 (nM); cAMP production … cell pool B” value [2]?
**A.** The value was 17 nM.

**Q.** And the “MCR4 EC50 (nM); cAMP production” value [3]?
**A.** Its value is 14 nM.

**Q.** How did the “MCR1 EC50 (nM); cAMP production, LANCE cAMP assay, CHO-MCR1 cells, cell pool A” value [1] turn out when YVMGHFRWDRFGRRNSSSSGSSGAGQSYSMEHFRWGKPVGKKRRPVKVYP [γ-MSH-ACTH1-24 linker without cleavable site] was run?
**A.** The value was 11 nM.

**Q.** What about the “MCR3 EC50 (nM); cAMP production, LANCE cAMP assay, CHO-MCR3 cells, cell pool A” value [2] of the same binder?
**A.** Its value is 16 nM.

**Q.** Which “MCR1 EC50 (nM); cAMP production … cell pool B” value [1] does the source give for YVMGHFRWDRFGRRNSSSSGSSGAGQKR [γ-MSH with linker] here?
**A.** The value was 19 nM.

**Q.** And the “MCR3 EC50 (nM); cAMP production … cell pool B” value [2]?
**A.** The value was 11 nM.

**Q.** What about the “MCR4 EC50 (nM); cAMP production” value [3] of the same binder?
**A.** The value was over 100 nM.

B3: NDP-α-MSH-linker-Furin site-linker-ACTH1-24 (peptide)
peptide: Ac-SYS[Nle]EH[dF]RWGKPVGGGGSRRKRGGGGSSYSMEHFRWGKPVGKKRRPVKVYP
**Q.** B3 was tested. Which “MCR1 EC50 (nM); cAMP production … cell pool B” value [1] did it give?
**A.** The value was 0.333 nM.

**Q.** And the “MCR3 EC50 (nM); cAMP production … cell pool B” value [2]?
**A.** Its value is 4 nM.

**Q.** What about the “MCR4 EC50 (nM); cAMP production” value [3] of the same binder?
**A.** The value was 6.5 nM.

**Q.** For SYSMEHFRWGKPVGKKRRPVKVYPNGAEDESAEAFPLEFKR [ACTH1-39], which “MCR1 EC50 (nM); cAMP production … cell pool B” value [1] is on record?
**A.** Its value is 0.55 nM.

**Q.** What about the “MCR3 EC50 (nM); cAMP production … cell pool B” value [2] of the same binder?
**A.** The value was 18 nM.

**Q.** And the “MCR4 EC50 (nM); cAMP production” value [3]?
**A.** Its value is 31 nM.

B4: ACTH1-24-linker-MMP site-linker-NDP-α-MSH (peptide)
peptide: SYSMEHFRWGKPVGKKRRPVKVYPGGGGSPLGLWAGGGGSSYS[Nle]EH[dF]RWGKPV
modifications: ends and bridges not checked
**Q.** For B4, which “MCR1 EC50 (nM); cAMP production … cell pool B” value [1] is on record?
**A.** The value was 1.6 nM.

**Q.** And the “MCR3 EC50 (nM); cAMP production … cell pool B” value [2]?
**A.** The value was 4.7 nM.

**Q.** What about the “MCR4 EC50 (nM); cAMP production” value [3] of the same binder?
**A.** Its value is 5.8 nM.

B5: NDP-ACTH4-9-βAla-G-βAla-ACTH1-24 (peptide)
peptide: XEHXRWAGASYSMEHFRWGKPVGKKRRPVKVYP
modifications: Nle, dPhe and β-Ala residues as printed: Nle-EH-dPhe-RW-β-Ala-G-β-Ala-SYSMEHFRWGKPVGKKRRPVKVYP
**Q.** For B5, which “MCR1 EC50 (nM); cAMP production … cell pool B” value [1] is on record?
**A.** Its value is 0.16 nM.

**Q.** What about the “MCR3 EC50 (nM); cAMP production … cell pool B” value [2] of the same binder?
**A.** The value was 5.5 nM.

**Q.** What about the “MCR4 EC50 (nM); cAMP production” value [3] of the same binder?
**A.** The value was 2.4 nM.

B6: ACTH1-24-linker-Furin site-linker-NDP-α-MSH (peptide)
peptide: SYSMEHFRWGKPVGKKRRPVKVYPGGGGSRRKRGGGGSSYS[Nle]EH[dF]RWGKPV
modifications: ends and bridges not checked
**Q.** For B6, which “MCR1 EC50 (nM); cAMP production … cell pool B” value [1] is on record?
**A.** The value was 0.202 nM.

**Q.** And the “MCR3 EC50 (nM); cAMP production … cell pool B” value [2]?
**A.** The value was 0.453 nM.

**Q.** And the “MCR4 EC50 (nM); cAMP production” value [3]?
**A.** Its value is 1.9 nM.

**Q.** For YVMGHFRWDRFGKRSYSMEHFRWGKPVGKKRRPVKVYP [γ-MSH-ACTH1-24], which “MCR1 EC50 (nM); cAMP production, LANCE cAMP assay, CHO-MCR1 cells, cell pool A” value [1] is on record?
**A.** The value was 22 nM.

**Q.** And the “MCR3 EC50 (nM); cAMP production, LANCE cAMP assay, CHO-MCR3 cells, cell pool A” value [2]?
**A.** The value was 38 nM.
